Here are results for four molecules from patent US9988424 (DUKE UNIVERSITY, dated 2018).

Assay [1] addresses T1, AE.92TH023 gp120 gD+ (HIV-1).
T1 construct: domain: gp120; also called AE.92TH023 gp12 gD+
The experiment in a line: ELISA. Background: In an ELISA, binding on a coated surface is turned into a signal by an enzyme label.

In assay [2] the target is B.9021 gp140C (HIV-1). The experiment in a line: ELISA.
For assay [3], the target named is T2, SIV CPZ US-1 gp140CF (SIVcpz).
T2 construct: also called US-1 SIVCPZ gp140CF
T2 chain: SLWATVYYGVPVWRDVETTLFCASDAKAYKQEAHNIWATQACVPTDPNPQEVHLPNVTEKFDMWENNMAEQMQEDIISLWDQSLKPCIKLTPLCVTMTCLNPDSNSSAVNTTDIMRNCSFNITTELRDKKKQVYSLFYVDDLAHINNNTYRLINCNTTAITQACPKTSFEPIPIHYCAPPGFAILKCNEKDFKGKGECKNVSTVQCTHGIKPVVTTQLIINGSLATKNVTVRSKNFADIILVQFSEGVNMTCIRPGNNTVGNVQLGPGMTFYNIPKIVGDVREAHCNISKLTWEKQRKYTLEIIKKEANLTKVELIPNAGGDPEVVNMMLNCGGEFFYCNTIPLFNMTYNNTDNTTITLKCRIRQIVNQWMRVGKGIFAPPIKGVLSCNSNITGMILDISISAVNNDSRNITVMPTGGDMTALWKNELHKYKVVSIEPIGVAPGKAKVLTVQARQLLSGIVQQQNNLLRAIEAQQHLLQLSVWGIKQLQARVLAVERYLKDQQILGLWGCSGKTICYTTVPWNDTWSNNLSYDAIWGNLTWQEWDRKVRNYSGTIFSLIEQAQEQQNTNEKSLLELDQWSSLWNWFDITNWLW
Put plainly: ELISA.

The target of assay [4] is C.1086 gp120 (HIV-1). Put plainly: ELISA.
The target in assay [5] is T3, AE.A244 gD+ gp120 (HIV-1).
T3 construct: domain: gp120; also called AE.A244 gp120gD+
Put plainly: ELISA.

In assay [6] the target is T4, B.HXB/BAL gp140CFI (HIV-1, UniProt P04578 33-680).
T4 construct: also called B.HxB/Ba gp140 CFI
The experiment in a line: ELISA.

The target in assay [7] is T5, AE.97CNG2XF gp140CF (HIV-1).
T5 construct: also called E.97CNGX2F gp140CF
The experiment in a line: ELISA.

Assay [8] has as its target AE.A244 V1V2 Tags (HIV-1). Put plainly: ELISA OD405nm, antibody at 33, 11.1 and 1.2 ug/ml.
For assay [9], the target named is AE.A244 V1V2 Tags (HIV-1). Put plainly: ELISA OD405nm, bar chart, antibody concentration not given.

Positions count from the first letter of the chain named.

B1: HG107 (antibody, V domains shown)
VH: EVQLVESGGDLVQPGRSLRLSCAASGFTFDDYAMHWVRQAPGKGLEWISGISGNSGSRGYADSVKGRFTISRDNAKNSLYLQMNSLRAEDTALYYCATDGDRSGTTPLDHWGQGTRVTVSS
VL: SYELTQPPSVSVSPGQTARITCSGDALPKNYAYWYQQKSGQAPALVIYEDSKRPSGIPERFSGSSSGTMATLTISGAQVEDEADYYCYSTDSSGTPSFGTGTKVTVL
notes: also called mAb HG107
In general, EC50 refers to the concentration giving half of the maximal effect. The low end stands for a more potent agent, the high end for a less potent agent. Regarding B1, the EC50 amounted to 0.04 µg/mL in assay [1], 0.03 µg/mL in [4], 0.03 µg/mL in assay [5] and 0.055 µg/mL in [7]. For the same molecule, the binding result in assay [2], in [3] and in [6] was “no binding” each time.

B2: HG120 (antibody, V domains shown)
VH: EVQLVESGGGLVQPGGSLRLSCAASGFTFSSYAMRWVRQAPGKGLEWVSGISGSGGSTYYADSVKGRFTISRDNSKITLYLQMDSLRVEDTAVYYCATAPLSYDSSTDYWGQGTLVTVSS
VL: B1 VL with N30K, A44V, T95N, S97R, T100R, V104L
notes: also called mAb HG120
B2: the EC50 in [1] worked out at 0.02 µg/mL; in [4], 0.02 µg/mL; in assay [5] it was 0.02 µg/mL; in assay [7] it was 0.06 µg/mL. Also, the binding result in assay [2], in [3] and in [6] was “no binding” each time.

B3: CH01 RUA 1 (antibody, V domains shown)
VH: EVQLVESGGGVVRPGGSLRLSCAASGFTFDDYGMSWVRQAPGKGLEWVSGINWNGGSTGYADSVKGRFTISRDNAKNSLYLQMNSLRAEDTALYYCARGTDYTIDDQGIRYQGSGTFWYFDLWGRGTLVTVSS
VL: not shown
Take B3: the binding result in assay [8] is given as “binds”.

B4: CH01 RUA 2 (antibody, V domains shown)
VH: B3 VH with R110L
VL: not shown
As for B4, the binding result in assay [9] is listed as “binds”.
